The source of these data is patent US20080058275, “Rna Interferases And Methods Of Use Thereof” (published 2008).

In one data set the target is (His)6MazE(K7A) (Escherichia coli, UniProt P0AE72 SEQ:1-82, K7A). Kind of data set: EMSA; 4 uM. The settings on record: tags: N-terminal His6; chain copies: 2; label: 32P. In general terms: A gel shift assay detects complexes by their altered migration in electrophoresis.
In the next data set the target is (His)6MazE(R16A) (Escherichia coli, UniProt P0AE72 SEQ:1-82, R16A). Kind of data set: EMSA; 4 uM. Conditions: tags: N-terminal His6; chain copies: 2; label: 32P.
The target of another data set is (His)6MazE(R8A) (Escherichia coli, UniProt P0AE72 SEQ:1-82, R8A). Nature of the data set: EMSA; 4 uM. The settings on record: tags: N-terminal His6; chain copies: 2; label: 32P.
The target of another data set is (His)6MazE(S12A) (Escherichia coli, UniProt P0AE72 SEQ:1-82, S12A). Nature of the data set: EMSA; 4 uM. Conditions: tags: N-terminal His6; chain copies: 2; label: 32P.
The target in the next data set is MazE-MazF(His)6 complex (Escherichia coli, UniProt P0AE72;P0AE70 SEQ:1-82,SEQ:1-111). Kind of data set: EMSA; 1 uM complex. The settings on record: tags: C-terminal His6 on MazF; chain copies: MazF2-MazE2-MazF2 (stated); label: 32P.
A further data set deals with (His)6MazE(R48A) (Escherichia coli, UniProt P0AE72 SEQ:1-82, R48A). Nature of the data set: EMSA; data not shown. The settings on record: tags: N-terminal His6; chain copies: 2; label: 32P.
In a further data set the target is (His)6MazE(F53A) (Escherichia coli, UniProt P0AE72 SEQ:1-82, F53A). Nature of the data set: EMSA; data not shown. Conditions: tags: N-terminal His6; chain copies: 2; label: 32P.
The next data set addresses (His)6MazE(E57Q) (Escherichia coli, UniProt P0AE72 SEQ:1-82, E57Q). Nature of the data set: EMSA; data not shown. The settings on record: tags: N-terminal His6; chain copies: 2; label: 32P.
The next data set deals with MazF (Escherichia coli, UniProt P0AE70 SEQ:1-111). Nature of the data set: EMSA; no binding up to 20 uM. Conditions: tags: untagged; chain copies: 2; label: 32P.
A further data set has as its target (His)6MazE-MazF complex (Escherichia coli, UniProt P0AE72;P0AE70 SEQ:1-82,SEQ:1-111). Nature of the data set: EMSA; shift at 0.2 uM MazE, MazE:MazF 1:2; more than ten-fold enhancement over MazE. Conditions: tags: N-terminal His6 on MazE; chain copies: MazF2-MazE2-MazF2 (stated); label: 32P.
In another data set the target is (His)6MazE (Escherichia coli, UniProt P0AE72 SEQ:1-82). Kind of data set: EMSA; discrete shift at 2 uM or higher; smear at 0.4-1.0 uM; 5 mM MgCl2, poly(dI-dC), 4 C. The settings on record: tags: N-terminal His6; chain copies: 2 (inferred); label: 32P.

B1: mazEF promoter 50-bp (dsDNA)
DNA 1: GCTCGTATCTACAATGTAGATTGATATATACTGTATCTACATATGATAGC
DNA 2: GCTATCATATGTAGATACAGTATATATCAATCTACATTGTAGATACGAGC
In the case of B1, the binding result with (His)6MazE(K7A) is recorded as “no binding”; in the data set with (His)6MazE(R16A), “no binding”; in the data set with (His)6MazE(R8A), “no binding”; in the data set with (His)6MazE(S12A), “no binding”; with MazE-MazF(His)6 complex, “binds”; with (His)6MazE(R48A) it was “binds”. Also, the binding result in the data set with (His)6MazE(F53A) was “binds”; with (His)6MazE(E57Q), “binds”; with MazF it was “no binding”; with (His)6MazE-MazF complex, “binds”; in the data set with (His)6MazE, “binds”.
